This note sets out measurements from patent US20170002075A1 (AbbVie / Abbott, published 2017).

Residue numbers refer to the chain shown, from its start.

The labels stand for the following.
B1: humanized anti-RAGE antibody h11E6.1 (antibody, V domains shown)
VH: EVQLVQSGSELKKPGASVKVSCKASGYTFTNFGMNWVRQAPGQGLEWMGYINTNTGESIYSEEFKGRFVFSLDTSVSTAYLQICSLKAEDTAVYYCARSRMVTAYGMDYWGQGTTVTVSS
VL: DIQMTQSPSSLSASVGDRVTITCKASQNVGTAVAWYQQKPGKAPKLLIYSASNRYTGVPSRFSGSGSGTDFTLTISSLQPEDFATYYCQQYSSYPLTFGQGTKLEIKR
notes: Full-length humanized antibody transiently produced in 293-6E cells
B2: humanized anti-RAGE antibody h11E6.13 (antibody, V domains shown)
VH: EIQLVQSGAEVKKPGASVKVSCKASGYTFTNFGMNWVRQAPGQGLEWMGYINTNTGESIYSEEFKGRFTFTLDTSTSTAYMELSSLRSEDTAVYFCARSRMVTAYGMDYWGQGTSVTVSS
VL: B1 VL
notes: as for B1
B3: humanized anti-RAGE antibody h11E6.9 (antibody, V domains shown)
VH: B2 VH with I2V, F68V, F70M, L72R, F95Y
VL: B1 VL
notes: as for B1
B4: humanized anti-RAGE antibody h11E6.3 (antibody, V domains shown)
VH: B1 VH
VL: EIVMTQSPATLSLSPGERATLSCKASQNVGTAVAWYQQKPGQAPRLLIYSASNRYTGIPARFSGSGSGTDFTLTISSLQSEDFAVYYCQQYSSYPLTFGQGTKLEIKR
notes: as for B1
B5: humanized anti-RAGE antibody h11E6.5 (antibody, V domains shown)
VH: B1 VH with V2I, Y95F
VL: B1 VL
notes: as for B1
B6: humanized anti-RAGE antibody h11E6.8 (antibody, V domains shown)
VH: B1 VH with V2I, Y95F
VL: B4 VL with A43S, Y49F, I58V, Y87F
notes: as for B1
B7: humanized anti-RAGE antibody h11E6.4 (antibody, V domains shown)
VH: B1 VH
VL: B4 VL with A43S, Y49F, I58V, Y87F
notes: as for B1
B8: humanized anti-RAGE antibody h11E6.7 (antibody, V domains shown)
VH: B1 VH with V2I, Y95F
VL: B4 VL
notes: as for B1
B9: humanized anti-RAGE antibody h11E6.11 (antibody, V domains shown)
VH: B2 VH with I2V, F68V, F70M, L72R, F95Y
VL: B4 VL
notes: as for B1
B10: humanized anti-RAGE antibody h11E6.12 (antibody, V domains shown)
VH: B2 VH with I2V, F68V, F70M, L72R, F95Y
VL: B4 VL with A43S, Y49F, I58V, Y87F
notes: as for B1
B11: humanized anti-RAGE antibody h11E6.15 (antibody, V domains shown)
VH: B2 VH
VL: B4 VL
notes: as for B1
B12: humanized anti-RAGE antibody h11E6.16 (antibody, V domains shown)
VH: B2 VH
VL: B4 VL with A43S, Y49F, I58V, Y87F
notes: as for B1
B13: C-terminal shortened husRAGE fusion protein (1-130-sRAGE-Fc) (Fc fusion)
chain: AQNITARIGEPLVLKCKGAPKKPPQRLEWKLNTGRTEAWKVLSPQGGGPWDSVARVLPNGSLFLPAVGIQDEGIFRCQAMNRNGKETKSNYRVRVYQIPGKPEIVDSA
notes: also called husRAGE-1-130-Fc; RAGE-Fc mutant protein consisting of the v-domain only; not shown: C-terminal part of a human IgG heavy chain ('hIgG lambda hc 257-Stop')
B14: 7F9-recombinant (antibody, V domains shown)
VH: EEKLEESGGGLVQLGGSMKISCVASGFTLSNYWMDWVRQSPEKGLEWIAEIRLKSNYYSTHYAESVKGRFSISRDDSKGSVSLQMDNLTAEDTGIYFCARNAYWYFDVWGTGTTVTVSS
VL: DIVMTQSHKFMSTSVGDRVSATCKASQDVGTSVAWYQQKLGQSPKLLIYWTSTRHTGVPDRFTGSGSGTDFTLTISNVQSEDLADYFCQQYNNYPLTFGDGTKLELKR
notes: also called recombinant chimeric anti-human RAGE monoclonal antibody 7F9 (human IgG1/kappa)
B15: 4E5-recombinant (antibody, V domains shown)
VH: QVQLQQSGAELVRPGTSVKVSCKASGYAFNNYLIEWIKQRPGQGLEWIGVINPGSGGTNHNEKFKVKATLTADKSSSTAYIQLSSLTSDDSAVYFCARSAGTARARFAYWGQGTLVTVSA
VL: DIQMTQSPSSLSASLGERVSLTCRASQDIGSSLNWLQQEPDGTIKRLIYATSSLDSGVPKRFSGSRSGSDYSLTISSLESEDFVDYYCLQYASFPFTFGSGTKLEIKR
notes: also called recombinant chimeric anti-human RAGE monoclonal antibody 4E5 (human IgG1/kappa)
B16: 11E6-recombinant (antibody, V domains shown)
VH: QIQLVQSGPELKKPGETVKISCKASGYTFTNFGMNWVKQAPGKGLKWMGYINTNTGESIYSEEFKGRFAFSLETSASTAYLQINNLKNEDTATYFCARSRMVTAYGMDYWGQGTSVTVSS
VL: DIVMTQSQKFMSTSVGDRVSITCKASQNVGTAVAWYQQRPGQSPKLLIFSASNRYTGVPDRFTGSGSGTDFTLTLSNMQPEDLADYFCQQYSSYPLTFGVGTKLELKR
notes: also called recombinant chimeric anti-human RAGE monoclonal antibody 11E6 (human IgG1/kappa)

For the first test, the target named is T1, hRAGE (1-331) / human sRAGE 1-331, V#400 (human, UniProt Q15109 23-331).
T1 construct: also called sRAGE [RAGE (1-331)]; RAGE (antigen of the Biacore runs)
T1 sequence (Q15109 23-331): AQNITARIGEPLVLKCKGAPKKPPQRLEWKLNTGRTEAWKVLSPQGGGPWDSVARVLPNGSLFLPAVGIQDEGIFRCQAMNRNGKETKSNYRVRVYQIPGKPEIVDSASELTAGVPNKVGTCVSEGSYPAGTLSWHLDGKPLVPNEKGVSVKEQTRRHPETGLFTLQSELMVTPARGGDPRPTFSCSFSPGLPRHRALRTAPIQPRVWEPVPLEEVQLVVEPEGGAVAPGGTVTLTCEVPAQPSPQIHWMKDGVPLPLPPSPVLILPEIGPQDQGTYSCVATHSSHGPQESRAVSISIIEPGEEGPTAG
Kind of test: competition ELISA on coated hRAGE (1-331); competitor biotinylated m11E6 at 0.3 µg/ml. How it is done: ELISA plates (Costar 3369) were coated overnight at 4° C. with 50 μl/well of 2 μg/ml hRAGE (1-331) in 0.2 M sodium carbonate-bicarbonate buffer, pH 9.4, washed with Wash Buffer (PBS containing 0.1% Tween 20), and blocked for 1 hr at room temperature with 200 pd/well of 2% nonfat dry milk in PBS. […] After incubating the plates for 1 hr at room temperature, and washing with Wash Buffer, bound antibodies were detected using 100 μl/well of 1:10,000 dilution of HRP-conjugated streptavidin (Fitzgerald) in ELISA buffer. After incubating for 1 hr at room temperature, and washing with Wash Buffer, color development was performed by adding 100 μl/well of TMB Buffer (Zymed). After incubating for 15 min at room temperature, color development was stopped by adding 50 μl/well of IN hydrochloric acid. Absorbance was read at 490 nm.
For B1, the IC50 turned out to be 19.7 nM.

Molecule B2 came in with a concentration for half-maximal inhibition (IC50) of 16.8 nM.

B3: the IC50 came to 17.9 nM. This IC50 and that of the molecule before are within 1.5-fold of each other.

The molecule B4 gave an IC50 of 18.8 nM.

Turning to B5, the IC50 amounted to 16.1 nM.

B6: the IC50 is 10.8 nM.

B7 showed a half-inhibitory concentration (IC50) of 14.1 nM.

With B8, the IC50 came out at 15.5 nM.

B9 returned an IC50 of 19.9 nM.

With B10, the IC50 came to 11.3 nM.

Molecule B11 came in with an IC50 of 14 nM.

Regarding B12, the IC50 was 9.2 nM.

The next test has as its target T1, hRAGE (1-331) / human sRAGE 1-331, V#400. The test is described as follows: Biacore SPR, mAb captured via anti-human Fc, sRAGE (1-331) injected 30-0.12 nM, PBS-P buffer, 1:1 fit. From the text:
Biacore 2000 and Biacore T100 instruments were used to measure anti-RAGE mAb binding kinetics. The assay format for mAb affinity analysis was Fc-based capture via immobilized anti-Fc antibodies. A standard amine coupling protocol was employed to immobilize Fc-specific IgG via primary amines to the carboxy-methyl (CM) dextran surface of CM5 sensorchips (Biacore). For the study of mouse anti-RAGE mAbs, anti-mouse Fc (Biacore, anti-mouse, BR-1005-14) was used as the immobilized capture reagent and for the study of humanized anti-RAGE mAbs, anti-human Fc (Pierce 31125) was used as the immobilized capture reagent. An automated protocol, available on the Biacore 2000 and Biacore T100, was used to immobilize 8000-10000 RU of capture reagent in all 4 flowcells of the sensorchip. Briefly, the CM-dextran surfaces were activated by freshly prepared 1:1 50 mM N-hydroxysuccinimide (NHS):200 mM 3-(N,N-dimethylamino) propyl-N-ethylcarbodiimide (EDC). Then the anti-Fc IgG capture reagent (20 ug/ml in 10 mM sodium acetate, pH4.5) was applied to the surface followed by deactivation of the surface and blocking of the residual reactive sites with 1M ethanolamine (pH 8.5).
The running buffer employed was PBS-P [1×PBS (Sigma P3813), pH 7.4, 0.005% P20 surfactant (Biacore)] for the humanized antibodies. Each experimental cycle consisted of the following steps: 1) anti-RAGE mAbs were captured in flowcells 2, 3 or 4 to a level of 50-200 RU (depending on the antigen). All measurements were referenced against flowcell 1 which had no captured anti-RAGE mAb. 2) Antigen was injected through all 4 flowcells, 240 ul at 80 ul/min. After the antigen injection, dissociation was monitored for 600 seconds at 80 ul/min. 3) the anti-Fc capture surface was regenerated with low pH glycine. For kinetic determinations, antigen injections were a 3 fold dilution series from either 30 nM-0.12 nM (for sRAGE [RAGE (1-331)] and buffer only in randomized duplicates.
Data were processed using either Biacore evaluation software or Scrubber 2.0 software (BioLogic Software). Briefly, the data were double referenced by first, subtracting the signal from the reference cell and second, by subtracting the signal from buffer-only injections.
As to B6, the affinity, expressed as Kd, was 0.033 nM; the koff is 0.00084 s⁻¹; the kon came out at 2.5e+07 M⁻¹ s⁻¹.

Molecule B10 gave a Kd of 0.083 nM, a koff of 0.0017 s⁻¹ and a kon of 2e+07 M⁻¹ s⁻¹.

On to B12, for which the Kd stood at 0.05 nM, the koff came out at 0.0014 s⁻¹ and the kon was 2.8e+07 M⁻¹ s⁻¹.

Another test addresses T2, biotinylated Aβ1-42 globulomer (UniProt P05067 672-713, 1/5 of the Aβ1-42 peptide used was Biotinyl-Amyloid β-Protein (1-42)).
T2 construct: domain: Amyloid β-Protein (1-42); Oligomer of Aβ1-42; Concentrations are calculated as Aβ1-42 monomer; also called Aβ-globulomer; amyloid Aβ-globulomers
Kind of test: ALPHA screen: RAGE-Fc titrated on protein A acceptor beads, biotinylated Aβ globulomer on streptavidin donor beads.
For B13, the binding result is on record as “no binding (tested: about 30 ng/µl)”.

For the next test, the target named is T3, recombinant human RAGE (plate coat of the competition ELISA of Example 1.4).
T3 construct: not shown: The carrier of the coated preparation, if it had one
Kind of test: competition ELISA on plates coated with recombinant human RAGE (2 µg/mL); competitor: biotinylated hybridoma-derived 7F9 (7F9-biotin), streptavidin-HRP, OD 450 nm; the unit comes from the axis 'Log MAbs (M)'. On the procedure: (§1) The purified chimeric anti-human RAGE monoclonal antibodies were tested for their ability to bind human RAGE in a competition ELISA. […] Equal volumes (50 μL) of each recombinant chimeric anti-human RAGE monoclonal antibodies or hybridoma-derived anti-human RAGE monoclonal antibodies and each corresponding biotinylated hybridoma-derived anti-RAGE mAbs were mixed. 50 μL of this mixture was then added to ELISA plates pre-coated with recombinant human RAGE at 2 μg/mL and incubated for 1.5 hours at room temperature. Wells were washed three times with PBS+0.05% Tween-20. Streptavidin HRP (1 mg/mL) was diluted 1:16000 in PBST+10% Superblock; 50 µL/well was added and the plates incubated for 1 hour at room temperature. Plates were washed 3 times with PBS+0.05% Tween-20. 50 µL of TMB solution (Sigma, St Louis, Mo.) was added to each well and incubated for 10 minutes at room temperature. The reaction was stopped by addition of IN sulphuric acid. Plates were read spectrophotometrically at a wavelength of 450 nm.
Turning to B14, the EC50 is 108 nM.

Another test concerns the target T3, recombinant human RAGE (plate coat of …). Kind of test: competition ELISA on plates coated with recombinant human RAGE (2 µg/mL); competitor: biotinylated hybridoma-derived 4E5 (4E5-biotin), streptavidin-HRP, OD 450 nm; the unit comes from the axis 'Log MAbs (M)'. How it is done: as §1
Regarding B15, the concentration giving a half-maximal response (EC50) came to 66.2 nM.

The target is the same in a further test. Kind of test: competition ELISA on plates coated with recombinant human RAGE (2 µg/mL); competitor: biotinylated hybridoma-derived 11E6 (11E6-biotin), streptavidin-HRP, OD 450 nm; the unit comes from the axis 'Log MAbs (M)'. On the procedure: as §1
On to B16, for which the EC50 turned out to be 64.7 nM.
